Patent publication US20110059159A1

Assays:
[1] = molecular target: Chemokine Receptor 5 (CCR5) with an engineered 1D4 epitope at the C-terminal tail (UniProt P51681); assay: cell-based or functional assay
[2] = molecular target: holotransducin (Gt) (bovine) (UniProt P04695); assay: cell-based or functional assay
[3] = molecular target: Chemokine Receptor 5 (CCR5) with an engineered 1D4 epitope at the C-terminal tail (UniProt P51681); assay: sandwich ELISA, 2D7 capture, HRP-1D4 detection; CCR5 reconstituted into NABBs with POPC and zap1 (sample 7)
[4] = molecular target: Chemokine Receptor 5 (CCR5) with an engineered 1D4 epitope at the C-terminal tail (UniProt P51681); assay: sandwich ELISA, 2D7 capture, HRP-1D4 detection; CCR5 solubilised in 1% (w/v) DDM

holotransducin (Gt) (bovine), sequence (P04695 2-350, chain 1 of 3): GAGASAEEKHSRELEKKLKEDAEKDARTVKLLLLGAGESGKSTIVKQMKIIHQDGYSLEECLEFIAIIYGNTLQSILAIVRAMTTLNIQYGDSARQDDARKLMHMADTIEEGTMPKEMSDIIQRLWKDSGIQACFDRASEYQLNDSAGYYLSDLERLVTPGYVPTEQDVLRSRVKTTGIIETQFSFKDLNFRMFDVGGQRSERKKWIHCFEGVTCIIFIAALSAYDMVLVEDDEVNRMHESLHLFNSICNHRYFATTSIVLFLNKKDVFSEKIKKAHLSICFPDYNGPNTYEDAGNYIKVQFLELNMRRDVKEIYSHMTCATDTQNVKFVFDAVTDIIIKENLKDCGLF
holotransducin (Gt) (bovine), sequence (P62871 2-340, chain 2 of 3, further chain): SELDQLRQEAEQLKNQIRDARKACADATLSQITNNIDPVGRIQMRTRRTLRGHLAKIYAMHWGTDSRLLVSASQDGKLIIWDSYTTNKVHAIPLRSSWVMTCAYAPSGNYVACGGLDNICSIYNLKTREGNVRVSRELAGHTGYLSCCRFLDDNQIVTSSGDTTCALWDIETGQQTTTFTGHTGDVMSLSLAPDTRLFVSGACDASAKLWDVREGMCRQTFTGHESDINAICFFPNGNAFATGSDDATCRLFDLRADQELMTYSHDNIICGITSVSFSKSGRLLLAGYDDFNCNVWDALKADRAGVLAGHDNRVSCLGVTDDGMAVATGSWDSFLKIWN
holotransducin (Gt) (bovine), sequence (P02698 2-71, chain 3 of 3, further chain): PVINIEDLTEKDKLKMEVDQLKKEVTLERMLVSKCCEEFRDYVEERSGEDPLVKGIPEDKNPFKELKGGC

RANTES (from UniProt P13501 24-91) (ligand)
enhancement of B-GTPγS binding to the G protein [1]: < 30%

rhodopsin incorporated in NABBs (from UniProt P02699 1-348) (receptor)
apparent pseudo first-order rate constant (kobs) of transducin activation, 1 rho-NABB [2]: 0.006 s⁻¹
apparent pseudo first-order rate constant (kobs) of transducin activation, 2rho-NABB [2]: 0.003 s⁻¹

2D7 antibody
ELISA signal relative to sample 1 (% of sample 1) [3]: 92
ELISA signal relative to sample 1 (% of sample 1) [4]: 65
